As a reminder, the Kd is a measure of binding affinity in units of concentration. As a reminder, the koff is a measure of how fast the partners let go of each other. Lower therefore signals slow dissociation.

Results on 10 molecules are retold here after publication PMC10853778 (Nucleic Acids Research, 2022).

The target in data set [1] is HA-tagged human RTEL1 HHD1+2 deletion construct (human) (UniProt Q9NZ71). Description: co-IP; whole-cell extracts of HEK293T cells overexpressing HA-tagged RTEL1 constructs; IP overnight at 4°C (anti-HA), protein G agarose, immunoblot for RPA; with or without 100 units Benzonase.
The target in data set [2] is T1, RTEL1 HHD2 (Homo sapiens, UniProt Q9NZ71-6 1056-1140).
T1 sequence: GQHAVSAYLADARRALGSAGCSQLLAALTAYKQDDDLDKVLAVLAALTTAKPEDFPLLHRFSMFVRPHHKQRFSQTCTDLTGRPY
The experiment in a line: ITC; pH 6.5; NMR: 20 mM Tris-HCl pH 7.4, 50 mM NaCl, 2 mM DTT, 0.02% NaN3, 10% D2O, 25 C (one ssDNA-22 titration at pH 6.5); ITC: 10 mM potassium phosphate pH 6.5, 50 mM KCl, 0.02% NaN3, 25 C. To be noted: protein: recombinant, tags: N-terminal 6xHis. In general terms: Isothermal titration calorimetry measures the heat released or taken up as one component is titrated into another.

Another data set has as its target T2, RTEL1 HHD1 (Homo sapiens, UniProt Q9NZ71-6 886-978).
T2 sequence: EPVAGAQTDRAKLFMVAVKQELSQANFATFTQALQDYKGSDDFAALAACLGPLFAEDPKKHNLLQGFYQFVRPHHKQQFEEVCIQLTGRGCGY
The experiment in a line: NMR titration; NMR: 20 mM Tris-HCl pH 7.4, 50 mM NaCl, 2 mM DTT, 0.02% NaN3, 10% D2O, 25 C (one ssDNA-22 titration at pH 6.5); ITC: 10 mM potassium phosphate pH 6.5, 50 mM KCl, 0.02% NaN3, 25 C. To be noted: protein: recombinant; tags: N-terminal 6xHis; single strand.

In data set [3] the target is T1, RTEL1 HHD2. Description: NMR titration (TITAN); pH 6.5; NMR: 20 mM Tris-HCl pH 7.4, 50 mM NaCl, 2 mM DTT, 0.02% NaN3, 10% D2O, 25 C (one ssDNA-22 titration at pH 6.5); ITC: 10 mM potassium phosphate pH 6.5, 50 mM KCl, 0.02% NaN3, 25 C. Conditions: protein: recombinant; tags: N-terminal 6xHis; single strand.
For data set [4], the target named is T1, RTEL1 HHD2. The experiment in a line: NMR titration (TITAN); pH 7.4; NMR: 20 mM Tris-HCl pH 7.4, 50 mM NaCl, 2 mM DTT, 0.02% NaN3, 10% D2O, 25 C (one ssDNA-22 titration at pH 6.5); ITC: 10 mM potassium phosphate pH 6.5, 50 mM KCl, 0.02% NaN3, 25 C. Conditions: protein: recombinant, tags: N-terminal 6xHis.
Data set [5] deals with T1, RTEL1 HHD2. The experiment in a line: NMR titration; pH 7.4; NMR: 20 mM Tris-HCl pH 7.4, 50 mM NaCl, 2 mM DTT, 0.02% NaN3, 10% D2O, 25 C (one ssDNA-22 titration at pH 6.5); ITC: 10 mM potassium phosphate pH 6.5, 50 mM KCl, 0.02% NaN3, 25 C. To be noted: protein: recombinant; tags: N-terminal 6xHis; single strand.
Data set [6] concerns the target T3, RPA 32C winged-helix domain (residues 172-270 of RPA32) (human, UniProt P15927 172-270).
T3 construct: RPA32 (RPA2), human, residues 172-270 (winged-helix 32C domain); pET-15b; uniformly 15N-labelled where it was the observed partner; source: E. coli BL21(DE3) pLysS, purified (Ni-NTA, Q column, SEC); not shown: His6, N-terminal, kept
The experiment in a line: NMR titration; 15N-labelled partner titrated with unlabelled partner; 1H-15N HSQC, 25°C, 20 mM Tris-HCl pH 7.4, 50 mM NaCl, 2 mM DTT, 0.02% NaN3; Kd and Koff from TITAN 2D lineshape analysis, two-state model. Conditions: both partners purified.

T3 sequence (P15927 172-270): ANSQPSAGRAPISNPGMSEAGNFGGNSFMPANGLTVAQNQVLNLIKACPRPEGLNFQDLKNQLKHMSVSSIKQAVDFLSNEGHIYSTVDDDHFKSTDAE

On to “endogenous replication protein A (RPA) of HEK293T cells (from UniProt P27694 1-616; P15927 1-270; P35244 1-121) (complex)”, for which the reduction of co-immunoprecipitated RPA against full-length HA-RTEL1 in data set [1] came to 80%. Turning to AGGATTAGGATTAGGATTAGGA (ssDNA) [ssDNA-22], the Kd with RTEL1 HHD2 [2] (single strand) was found to be 940 ± 130 nM; with RTEL1 HHD2 [3] it was 3030 ± 640 nM; in the data set with RTEL1 HHD2 [4] (single strand) it was 14600 ± 1210 nM. In addition, the binding result in the data set with RTEL1 HHD1 is “no binding”. As for TTAGGATTAGGA (ssDNA) [ssDNA-12], the Kd with RTEL1 HHD2 [2] (single strand) was 1510 ± 140 nM.

In the case of TTAGGA (ssDNA) [ssDNA-6], the binding result with RTEL1 HHD2 [5] was “no binding”.

B1: 3'ss_dsDNA-24 (mixed)
DNA 1: TTAGGCAGAGAGAGAGAGTTAGGC
DNA 2: CTCTCTCTCTCTGCCTAA
With B1, the Kd with RTEL1 HHD2 [2] (3' overhang 6 nt (strand 1)) is 1220 ± 90 nM.

B2: dsDNA-22 (dsDNA)
DNA 1: AGGATTAGGATTAGGATTAGGA
DNA 2: TCCTAATCCTAATCCTAATCCT
For B2, in the data set with RTEL1 HHD2 [4] (blunt), the dissociation constant (Kd) is 19700 ± 4670 nM.

B3: 5'ss_dsDNA-24 (mixed)
DNA 1: TTAGGCAGAGAGAGAGAGTTAGGC
DNA 2: GCCTAACTCTCTCTCTCT
As for B3, in the data set with RTEL1 HHD2 [2] (5' overhang 6 nt (strand 1)), the Kd came to 2580 ± 270 nM.

B4: dsDNA-24 (dsDNA)
DNA 1: TTAGGCAGAGAGAGAGAGTTAGGC
DNA 2: GCCTAACTCTCTCTCTCTGCCTAA
For the molecule B4, the Kd with RTEL1 HHD2 [2] (blunt) amounted to 1950 ± 310 nM. Regarding TTAGGCAGAGAGAGAGAGTTAGGC (ssDNA) [ssDNA-24], in the data set with RTEL1 HHD2 [2] (single strand), the dissociation constant (Kd) amounted to 1320 ± 150 nM.

B5: RTEL1 harmonin homology domain 2 (residues 1056-1140) (domain or fragment, human, UniProt Q9NZ71-6 1056-1140, looked up)
chain: GQHAVSAYLADARRALGSAGCSQLLAALTAYKQDDDLDKVLAVLAALTTAKPEDFPLLHRFSMFVRPHHKQRFSQTCTDLTGRPY
notes: RTEL1, human, residues 1056-1140 (HHD2) of Uniprot Q9NZ71-6; uniformly 15N-labelled where it was the observed partner; also called HHD2; RTEL1 HHD2; source: E. coli Rosetta (DE3), purified (Ni-NTA, heparin, SEC); not shown: His6, N-terminal, kept
As to B5, in data set [6], binding was characterised by a dissociation constant (Kd) of 360000 nM and the koff came to 8460 s⁻¹.
